Patent publication US9587002B2, “Sequence of nucleotides and peptides GSE 24.2 of dyskerin, which can induce telomerase activity, method for obtaining same, therapeutic compositions and applications thereof” (CONSEJO SUPERIOR DE INVESTIGACIONES CIENTIFICAS, priority 2005, dated 2017)
Entries after “also recorded” stand apart in the source; their conditions may differ.

What was measured:
293T cells = assay: Cell viability of 293T cell lines treated with cisplatin (crystal violet); type: cell-based, human; conditions: 293T cells stably expressing the construct vs empty vector pLNCX; cisplatin 0-100 μg/ml, 72 hours
Protocol: FIG. 2.—Cell viability and activation of the JNK and p38 death pathways in 293T cell lines: pLNCX and 24.2, treated with cisplatin. A) Cell viability. After seeding the 293T cells: expressing the empty vector (pLNCX) and GSE 24.2 (24.2) in 24-well plates, they were incubated with concentrations between 0-100 μg/ml of cisplatin. The cell viability was measured by means of the crystal violet technique after 72 hours of exposure to the drug. The data represent the mean of two experiments performed in quadruplicate. B) Activation kinetics. Subsequently, the activation of JNK and p38 was studied using antibodies that specifically recognise the active forms. As a load control, the levels of JNK-1 were detected.
FIG. 4.—Viability of the 293T cell lines: pLNCX, 24.2, DSK5′ and DSK treated with cisplatin. The cell lines described above (pLNCX and 24.2), the DSK 5′ cell line, which expresses a fragment of dyskerin described in the preceding figure, and a fourth one that overexpresses the complete cDNA of dyskerin (DSK) have been used. The viability was analyzed as shown in FIG. 1 A. The data represent the mean of two experiments performed in quadruplicate. […]
Growth curves. […] The number of cells was determined by estimating the absorbance at 595 nm. […]

hTR = assay: RT-PCR of hTR in cells of patients with dyskeratosis congenita; type: cell-based, human; conditions: RT-PCR 24 hours after transfection
Protocol: FIG. 10.—Telomerase activity and expression levels of hTERT and hTR in the cells of patients with dyskeratosis congenita and in VA13 cells transiently transfected with the 24.2 plasmid or the pLNCX empty vector. A) Telomerase activity measured by means of the TRAP assay in the cells of patients with dyskeratosis congenita (DC-1, DC-2 and DC-3) and in the carrier parent (DC-C) following electroporation of 45 μg of the pLNCX empty plasmid (−) or the pLNCX 24.2 vector (+) by 15 million cells. B) RT-PCR of the RNA from cells of one of the patients with dyskeratosis congenita, DC3 transfected with the empty vector and DC3 transfected with the 24.2 plasmid, using oligos specific for hTERT and hTR. As a starting RNA control, oligos for the amplification of GAPDH were used. C) Telomerase activity in VA13 cells. The cells were transiently transfected with 16 μg of the control pLNCX empty vector, expressing DKC or the GSE 24.2 peptide per million cells. 24 hours later, the telomerase activity was analysed as described above, using dilutions of the protein extracts from each transfection. D) The expression levels of hTERT and hTR in VA13 cells transfected with 16 μg of the different construct per million cells. RNA levels were detected as described above. GAPDH was used as a control. […] After 24 h of transfection, the luciferase activity was analyzed as described above. […]

B1: GSE 24.2: 165-pb cDNA fragment (nucleotides 268 to 433) of human dyskerin, SEQ ID NO1, encoding peptide SEQ ID NO2, expressed from pLNCX plasmid (nucleic acid, listed as Homo sapiens)
DNA: GGTTTCATTAATCTTGACAAGCCCTCTAACCCCTCTTCCCATGAGGTGGTAGCCTGGATTCGACGGATACTTCGGGTGGAGAAGACAGGGCACAGTGGTACTCTGGATCCCAAGGTGACTGGTTGTTTAATCGTGTGCATAGAACGAGCCACTCGCTTGGTGAAG
modifications: expressed from pLNCX plasmid; CDS (1)..(165) Sequence GSE 24.2
cell viability in response to cisplatin (293T cells): greater viability in response to cisplatin; also recorded: survival capacity to cisplatin | hTR expression levels in dyskeratosis congenita cells (hTR): an increase in the expression levels was observed
